29 sequences from the supplement of paper PMC9428881 can be followed below.

This series in a line: background-corrected fluorescence of 3'-dye-labeled ssDNA relative to brightest sequence (3'-GCGCG) (fraction); higher = brighter dye fluorescence (less quenching). In short, it runs like this:
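Subtracting background from unlabeled oligos and scaling to the brightest sequence gave the reported fluorescence. Single-stranded DNA bearing a 3' Cy3 or Cy5 dye next to each of 1024 permuted pentamers was assembled on glass slides by light-directed phosphoramidite synthesis. Following a 2 h r.t. acetonitrile wash, slides were scanned at 532 or 635 nm before and after overnight ethylenediamine/ethanol deprotection, and values were averaged over 10 features per array and at least 3 syntheses.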

± gives the standard error.

As to “TTTTTGCATGATGCGCATCATTTTTTTTTTTTTTTTCATG [GTACT]”, the background-corrected fluorescence by setting is: (dye: Cy3 (3' terminal)) 0.524 ± 0.054; (dye: Cy5 (3' terminal)) 0.377 ± 0.019.
The like results for “TTTTTGCATGATGCGCATGATTTTTTTTTTTTTTTTCATC [CTACT]” were, in that order, 0.406 ± 0.0046 and 0.305 ± 0.028.
In the case of “TTTTTGCATGATGCGCATGCTTTTTTTTTTTTTTTTCATA [ATACT]”, the background-corrected fluorescence amounted to 0.518 ± 0.019 (dye: Cy3 (3' terminal)) and 0.396 ± 0.024 (dye: Cy5 (3' terminal)).
Regarding “TTTTTGCATGATGCTCAGCATTTTTTTTTTTTTTTTCAGT [TGACT]”, the background-corrected fluorescence was 0.596 ± 0.016 (dye: Cy3 (3' terminal)) and 0.488 ± 0.05 (dye: Cy5 (3' terminal)).
“TTTTTGCATGATGCTCATCATTTTTTTTTTTTTTTTCAGG [GGACT]”: the background-corrected fluorescence reads like this: (dye: Cy3 (3' terminal)) 0.606 ± 0.034; (dye: Cy5 (3' terminal)) 0.486 ± 0.034.
Consider “TTTTTGCATGATGCTCATGATTTTTTTTTTTTTTTTCAGC [CGACT]”, for which the background-corrected fluorescence runs as follows: (dye: Cy3 (3' terminal)) 0.492 ± 0.012; (dye: Cy5 (3' terminal)) 0.393 ± 0.047.
“TTTTTGCATGATGCTCATGCTTTTTTTTTTTTTTTTCAGA [AGACT]”: the background-corrected fluorescence runs as follows: (dye: Cy3 (3' terminal)) 0.615 ± 0.017; (dye: Cy5 (3' terminal)) 0.531 ± 0.036.
As for “TTTTTGCATGATGCTGAGCATTTTTTTTTTTTTTTTCACT”, the background-corrected fluorescence (dye: Cy3 (3' terminal)) came out at 0.447 ± 0.036 and the background-corrected fluorescence (dye: Cy5 (3' terminal)) was 0.334 ± 0.02.
In the case of “TTTTTGCATGATGCTGATCATTTTTTTTTTTTTTTTCACG [GCACT]”, the background-corrected fluorescence worked out at 0.491 ± 0.03 (dye: Cy3 (3' terminal)) and 0.399 ± 0.022 (dye: Cy5 (3' terminal)).
With “TTTTTGCATGATGCTGATGATTTTTTTTTTTTTTTTCACC [CCACT]”, the background-corrected fluorescence turned out to be 0.382 ± 0.011 (dye: Cy3 (3' terminal)) and 0.265 ± 0.016 (dye: Cy5 (3' terminal)).
The like results for “TTTTTGCATGATGCTGATGCTTTTTTTTTTTTTTTTCACA [ACACT]” were, in that order, 0.485 ± 0.015 and 0.379 ± 0.034.
“TTTTTGCATGATGCTGCGCATTTTTTTTTTTTTTTTCAAT [TAACT]”: the background-corrected fluorescence reads like this: (dye: Cy3 (3' terminal)) 0.554 ± 0.027; (dye: Cy5 (3' terminal)) 0.386 ± 0.019.
On to “TTTTTGCATGATGCTGCTCATTTTTTTTTTTTTTTTCAAG [GAACT]”, for which the background-corrected fluorescence is, setting by setting: (dye: Cy3 (3' terminal)) 0.515 ± 0.054; (dye: Cy5 (3' terminal)) 0.39 ± 0.042.
The corresponding values for “TTTTTGCATGATGCTGCTGATTTTTTTTTTTTTTTTCAAC [CAACT]” are 0.429 ± 0.0094 and 0.318 ± 0.025.
Consider “TTTTTGCATGATGCTGCTGCTTTTTTTTTTTTTTTTCAAA [AAACT]”, for which the background-corrected fluorescence came to 0.562 ± 0.024 (dye: Cy3 (3' terminal)) and 0.462 ± 0.051 (dye: Cy5 (3' terminal)).
Regarding “TTTTTGCATGCGCAGCAGCATTTTTTTTTTTTTTTTATTT”, the background-corrected fluorescence reads like this: (dye: Cy3 (3' terminal)) 0.539 ± 0.04; (dye: Cy5 (3' terminal)) 0.381 ± 0.021.
Consider “TTTTTGCATGCGCAGCATCATTTTTTTTTTTTTTTTATTG [GTTAT]”, for which the background-corrected fluorescence (dye: Cy3 (3' terminal)) came to 0.522 ± 0.018 and the background-corrected fluorescence (dye: Cy5 (3' terminal)) stood at 0.359 ± 0.021.
Consider “TTTTTGCATGCGCAGCATGATTTTTTTTTTTTTTTTATTC [CTTAT]”, for which the background-corrected fluorescence runs as follows: (dye: Cy3 (3' terminal)) 0.394 ± 0.023; (dye: Cy5 (3' terminal)) 0.292 ± 0.018.
“TTTTTGCATGCGCAGCATGCTTTTTTTTTTTTTTTTATTA [ATTAT]” returned a background-corrected fluorescence (dye: Cy3 (3' terminal)) of 0.545 ± 0.017 and a background-corrected fluorescence (dye: Cy5 (3' terminal)) of 0.409 ± 0.035.
The corresponding values for “TTTTTGCATGCGCATCAGCATTTTTTTTTTTTTTTTATGT [TGTAT]” are 0.639 ± 0.033 and 0.489 ± 0.046.
The corresponding values for “TTTTTGCATGCGCATCATCATTTTTTTTTTTTTTTTATGG [GGTAT]” are 0.576 ± 0.011 and 0.467 ± 0.023.
In the case of “TTTTTGCATGCGCATCATGATTTTTTTTTTTTTTTTATGC [CGTAT]”, the background-corrected fluorescence came to 0.5 ± 0.026 (dye: Cy3 (3' terminal)) and 0.377 ± 0.024 (dye: Cy5 (3' terminal)).
“TTTTTGCATGCGCATCATGCTTTTTTTTTTTTTTTTATGA [AGTAT]”: the background-corrected fluorescence came out at 0.625 ± 0.025 (dye: Cy3 (3' terminal)) and 0.579 ± 0.047 (dye: Cy5 (3' terminal)).
Take “TTTTTGCATGCGCATGAGCATTTTTTTTTTTTTTTTATCT [TCTAT]”: the background-corrected fluorescence runs as follows: (dye: Cy3 (3' terminal)) 0.457 ± 0.037; (dye: Cy5 (3' terminal)) 0.33 ± 0.017.
Turning to “TTTTTGCATGCGCATGATCATTTTTTTTTTTTTTTTATCG [GCTAT]”, the background-corrected fluorescence reads like this: (dye: Cy3 (3' terminal)) 0.515 ± 0.016; (dye: Cy5 (3' terminal)) 0.402 ± 0.031.
For “TTTTTGCATGCGCATGATGATTTTTTTTTTTTTTTTATCC [CCTAT]”, the background-corrected fluorescence (dye: Cy3 (3' terminal)) was found to be 0.384 ± 0.024 and the background-corrected fluorescence (dye: Cy5 (3' terminal)) was found to be 0.285 ± 0.019.
As to “TTTTTGCATGCGCATGATGCTTTTTTTTTTTTTTTTATCA [ACTAT]”, the background-corrected fluorescence by setting is: (dye: Cy3 (3' terminal)) 0.478 ± 0.033; (dye: Cy5 (3' terminal)) 0.407 ± 0.053.
“TTTTTGCATGCGCATGCGCATTTTTTTTTTTTTTTTATAT” gave a background-corrected fluorescence (dye: Cy3 (3' terminal)) of 0.5701 ± 0.0051 and a background-corrected fluorescence (dye: Cy5 (3' terminal)) of 0.405 ± 0.037.
For “TTTTTGCATGCGCATGCTCATTTTTTTTTTTTTTTTATAG [GATAT]”, the background-corrected fluorescence is, setting by setting: (dye: Cy3 (3' terminal)) 0.548 ± 0.02; (dye: Cy5 (3' terminal)) 0.418 ± 0.032.
